# ± gives the uncertainty stated by the source.
# B1: F-BAR and double SH3 domains protein 1, residues 467 to 528; numbered along this chain, Q86WN1 (parent)
# chain: RALPCPAHVVFRYQAGREDELTITEGEWLEVIEEGDADEWVKARNQHGEVGFVPERYLNFPD
# B2: CD2-associated protein, residues 109 to 169; numbered along this chain, Q9Y5K6 (parent)
# chain: KKRQCKVLFEYIPQNEDELELKVGDIIDINEEVEEGWWSGTLNNKLGLFPSNFVKELEVTD
# Variants of: B1
# Assay: abundance fitness (aPCA) (normalised: wild type 0, dead -1); higher = more abundant; growth selection in yeast, the domain comes from the species named
# Conditions: Homo sapiens
row,Variant,abundance fitness
1,V10Y,-0.118 ± 0.1
2,A37H,-0.005 ± 0.13
3,A37C,0.118 ± 0.13
4,E27Q,-0.285 ± 0.088
5,E27K,-0.369 ± 0.12
6,E27D,-0.047 ± 0.16
7,G35I,-0.232 ± 0.19
8,Q14Y,-0.241 ± 0.084
9,Q14N,0.013 ± 0.1
10,Q14L,-0.208 ± 0.044
11,T22I,-0.847 ± 0.16
12,T22D,-0.117 ± 0.097
13,T22E,-0.5 ± 0.11
14,E18H,-0.531 ± 0.34
15,L58P,-0.946 ± 0.18
16,L58I,-0.088 ± 0.08
17,L58S,-0.65 ± 0.059
18,L58G,-0.73 ± 0.063
19,R1F,0.053 ± 0.099
20,E33V,-0.587 ± 0.086
21,E33N,-0.183 ± 0.095
22,E33M,-0.266 ± 0.13

row,Variant,abundance fitness
1,E33A,-0.048 ± 0.07
2,N59C,-0.036 ± 0.093
3,N59G,-0.096 ± 0.054
4,F60V,-0.157 ± 0.05
5,F60E,-0.561 ± 0.1
6,F60D,-0.768 ± 0.33
7,L29H,-0.6 ± 0.33
8,L29A,-0.7 ± 0.12
9,L29K,-1.06 ± 0.26
10,L29R,-0.728 ± 0.08
11,W28K,-0.004 ± 0.1
12,F11H,0.043 ± 0.095
13,H47V,0.004 ± 0.053
14,H47E,-0.171 ± 0.078
15,H47W,-0.176 ± 0.08
16,Y57M,-0.041 ± 0.063
17,Y57W,-0.281 ± 0.11
18,R12F,-0.01 ± 0.07
19,R12V,-0.367 ± 0.061
20,R12L,-0.265 ± 0.046
21,P6E,-0.294 ± 0.074
22,P6D,-0.432 ± 0.14

row,Variant,abundance fitness
1,P6K,-0.219 ± 0.075
2,V50L,-0.285 ± 0.052
3,V50E,0.016 ± 0.066
4,T24Y,-0.153 ± 0.096
5,T24N,-0.212 ± 0.15
6,A7D,-0.976 ± 0.34
7,A7G,-0.328 ± 0.061
8,A7M,-0.938 ± 0.15
9,A7E,-0.742 ± 0.32
10,F52W,0.033 ± 0.062
11,F52T,-0.284 ± 0.079
12,F52V,-0.127 ± 0.039
13,F52N,-0.175 ± 0.093
14,F52L,0.104 ± 0.04
15,P54K,-0.075 ± 0.1
16,G51V,-0.857 ± 0.096
17,I32L,-0.059 ± 0.051
18,N45D,-0.571 ± 0.2
19,N45R,-0.941 ± 0.12
20,V9I,-0.795 ± 0.14
21,V9T,-0.531 ± 0.1
22,P4N,-0.194 ± 0.17

row,Variant,abundance fitness
1,P4C,-0.346 ± 0.15
2,H8K,-0.257 ± 0.072
3,H8Q,-0.168 ± 0.077
4,H8M,-0.245 ± 0.084
5,E20V,-0.626 ± 0.097
6,E20N,-0.39 ± 0.3
7,E55S,-0.069 ± 0.05
8,D36G,-0.049 ± 0.094
9,R17P,-0.797 ± 0.27
10,R17S,-0.016 ± 0.06
11,G26P,-0.776 ± 0.1
12,G26H,-0.389 ± 0.16
13,E49F,-0.088 ± 0.09
14,E49R,-0.085 ± 0.058
15,E49Y,-0.427 ± 0.14
16,W40T,-0.101 ± 0.06
17,V53W,-1.03 ± 0.16
18,V53I,-0.031 ± 0.085
19,V53C,-0.262 ± 0.081
20,A43V,-0.056 ± 0.058
21,A43H,-0.629 ± 0.26
22,A43T,-0.409 ± 0.1

row,Variant,abundance fitness
1,A43R,-0.842 ± 0.15
2,A43K,-0.71 ± 0.17
3,A43Q,-0.839 ± 0.16
4,R56M,-0.126 ± 0.055
5,R56Y,-0.174 ± 0.078
6,R56H,-0.118 ± 0.1
7,R56W,-0.263 ± 0.12
8,V41K,-0.411 ± 0.13
9,V41G,-0.72 ± 0.11
10,V41R,-0.526 ± 0.079
11,K42R,-0.182 ± 0.058
12,K42T,-0.076 ± 0.069
13,K42V,-0.105 ± 0.05
14,A15L,-0.718 ± 0.085
15,A15H,-0.891 ± 0.33
16,A15S,-0.146 ± 0.052
17,Q46Y,-0.114 ± 0.092
18,D19P,-0.396 ± 0.087
19,D19G,0.159 ± 0.067
20,D19R,-0.048 ± 0.039
21,L21D,-0.851 ± 0.35
22,L3E,-0.503 ± 0.12

row,Variant,abundance fitness
1,L3C,-0.121 ± 0.063
2,V31R,-0.743 ± 0.069
3,V31T,-0.778 ± 0.14
4,V31P,-0.969 ± 0.19
5,V31F,-0.991 ± 0.19
6,E30K,-0.289 ± 0.099
7,E30Y,-0.238 ± 0.099
8,C5M,-0.595 ± 0.1
9,C5D,-1.04 ± 0.4
10,G48M,-0.296 ± 0.076
11,G48L,-0.423 ± 0.059
12,I23G,-0.588 ± 0.098
13,I23T,-0.227 ± 0.076
14,I23Y,-0.958 ± 0.17
15,A2M,0.104 ± 0.085
16,A2K,0.169 ± 0.069
17,D62E,0.114 ± 0.1
18,D62M,-0.181 ± 0.18
19,D62L,-0.151 ± 0.053
20,D62F,-0.399 ± 0.11
21,P61K,0.026 ± 0.11
22,P61Q,0.081 ± 0.088

# Variants of: B2
# Assay: as above
# Conditions: Homo sapiens
row,Variant,abundance fitness
1,V59P,-0.138 ± 0.14
2,V59T,0.01 ± 0.1
3,V59S,0.163 ± 0.088
4,V59W,-0.117 ± 0.079
5,V59R,-0.131 ± 0.078
6,V59Y,0.036 ± 0.19
7,V59Q,-0.166 ± 0.13
8,D61T,-0.329 ± 0.26
9,D61K,-0.582 ± 0.35
10,D61S,-0.692 ± 0.34
11,D61L,-0.301 ± 0.14
12,D61A,-0.29 ± 0.22
13,D61Q,-0.014 ± 0.24
14,D61H,0.346 ± 0.23
15,D61C,-0.561 ± 0.23
16,D61V,-0.312 ± 0.24
17,D61N,-0.273 ± 0.28
18,D61M,-0.106 ± 0.24

row,Variant,abundance fitness
1,D61P,0.04 ± 0.32
2,D61R,-0.261 ± 0.18
3,D61E,0.283 ± 0.26
4,D61Y,-0.376 ± 0.21
5,T60W,-0.198 ± 0.3
6,T60Y,-0.489 ± 0.25
7,T60V,-0.399 ± 0.27
8,T60D,0.183 ± 0.28
9,T60S,-0.039 ± 0.1
10,T60M,-0.257 ± 0.18
11,T60Q,0.039 ± 0.13
12,T60E,0.019 ± 0.13
13,T60C,-0.183 ± 0.19
14,T60H,0.045 ± 0.16
15,T60K,-0.006 ± 0.39
16,T60R,-0.366 ± 0.13
17,T60L,0.01 ± 0.14

# Source: the Human Domainome abundance scans (Beltran et al. 2025)
